Literature values as cited in paper PMC10947324.

What was measured:
Conditions in all cases: monomeric, unstructured Abeta
His14 = His14 (UniProt position 685, GYEVHHQKLVF)
His13 = His13 (UniProt position 684, SGYEVHHQKLV)
His6 = His6 (UniProt position 677, DAEFRHDSGYE)

Amyloid-beta peptide (Abeta), monomeric (Homo sapiens (inferred; the article discusses the peptide of Alzheimer's disease patients))
pKa (His14): 6.67
pKa (His13): 6.64
pKa (His6): 6.67
